Publication PMC5478280

How the values were obtained:
[1] = target: Csy complex (type I-F crRNA-guided surveillance complex), wild type (P. aeruginosa (strain PA14)) (UniProt Q02ML9); experiment: cryo-EM structure
[2] = target: Csy complex with Cas7f K85A (P. aeruginosa (strain PA14)) (UniProt Q02ML9); experiment: SPR

| Substance | stoichiometry N [1] | kd1 (dissociation rate) [2] [s⁻¹] |
| --- | --- | --- |
| anti-CRISPR protein AcrF2 (natural protein) | 1 | – |
| anti-CRISPR protein AcrF1 (natural protein) | 2 | 0.00031 |
